From patent publication US20240025997A1 (NGM BIOPHARMACEUTICALS, published 2024)

Assays:
soluble human ILT2-ECD [1] = biological target: T1, soluble human ILT2-ECD (human, UniProt Q8NHL6 24-461); assay: SPR (Biacore), antibody captured on Protein A chip, soluble human ILT2-ECD injected, 25 C
T1 construct: also called LILRB1 extracellular domain
Experimental: (§1) The binding affinities of anti-ILT2 and anti-ILT4 antibodies were measured using a Biacore system (GE Healthcare LifeSciences). Equilibrium dissociation constant (KD) measurements were carried out with purified antibodies to evaluate their binding to human ILT2, human ILT4, and rhesus ILT2. Briefly, purified anti-ILT2 antibody 27F9, anti-ILT4 antibodies 47C8 and 48A5, and anti-ILT2/ILT4 antibodies 47H6, 51A1, 64A12, 73C4, and 73D1 were captured on a Sensor Chip Protein A (GE HealthCare). The surface of the Biacore Sensor Chip Protein A consists of a carboxymethylated dextran matrix with a recombinant Protein A variant covalently attached. Soluble human ILT2-ECD, human ILT4-ECD, or rhesus ILT2-ECD were injected at a flow rate of 30 μL/min at 25° C. The ILT2 or ILT4 proteins were used at concentrations ranging from 1.6-200 nM in PBS-P buffer with 2 fold dilutions. Kinetic data were collected over time and fit using the simultaneous global fit equation to yield affinity constants (KD values) for each antibody.

soluble human ILT4-ECD [2] = biological target: T2, soluble human ILT4-ECD (human, UniProt Q8N423 22-460); assay: SPR (Biacore), antibody captured on Protein A chip, soluble ILT-ECD injected (1.6-200 nM), 25 C
T2 construct: also called LILRB2 extracellular domain
T2 sequence (Q8N423 other isoform, or with tags, fused parts or gaps): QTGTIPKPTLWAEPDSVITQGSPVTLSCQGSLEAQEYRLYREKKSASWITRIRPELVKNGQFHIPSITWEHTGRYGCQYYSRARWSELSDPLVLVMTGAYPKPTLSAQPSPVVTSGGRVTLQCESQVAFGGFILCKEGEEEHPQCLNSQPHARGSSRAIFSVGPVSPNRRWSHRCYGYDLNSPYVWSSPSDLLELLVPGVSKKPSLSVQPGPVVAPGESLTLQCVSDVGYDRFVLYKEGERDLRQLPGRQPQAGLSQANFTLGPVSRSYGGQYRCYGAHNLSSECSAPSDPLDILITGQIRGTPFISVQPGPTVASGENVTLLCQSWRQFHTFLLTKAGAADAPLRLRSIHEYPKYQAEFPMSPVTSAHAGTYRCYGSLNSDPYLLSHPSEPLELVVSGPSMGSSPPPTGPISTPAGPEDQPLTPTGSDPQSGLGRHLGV
Experimental: as §1

human ILT2 on cells = human ILT2 on cells (human, UniProt Q8NHL6 24-650); assay: cell-based or functional assay
human ILT2 on cells, sequence (Q8NHL6 24-650): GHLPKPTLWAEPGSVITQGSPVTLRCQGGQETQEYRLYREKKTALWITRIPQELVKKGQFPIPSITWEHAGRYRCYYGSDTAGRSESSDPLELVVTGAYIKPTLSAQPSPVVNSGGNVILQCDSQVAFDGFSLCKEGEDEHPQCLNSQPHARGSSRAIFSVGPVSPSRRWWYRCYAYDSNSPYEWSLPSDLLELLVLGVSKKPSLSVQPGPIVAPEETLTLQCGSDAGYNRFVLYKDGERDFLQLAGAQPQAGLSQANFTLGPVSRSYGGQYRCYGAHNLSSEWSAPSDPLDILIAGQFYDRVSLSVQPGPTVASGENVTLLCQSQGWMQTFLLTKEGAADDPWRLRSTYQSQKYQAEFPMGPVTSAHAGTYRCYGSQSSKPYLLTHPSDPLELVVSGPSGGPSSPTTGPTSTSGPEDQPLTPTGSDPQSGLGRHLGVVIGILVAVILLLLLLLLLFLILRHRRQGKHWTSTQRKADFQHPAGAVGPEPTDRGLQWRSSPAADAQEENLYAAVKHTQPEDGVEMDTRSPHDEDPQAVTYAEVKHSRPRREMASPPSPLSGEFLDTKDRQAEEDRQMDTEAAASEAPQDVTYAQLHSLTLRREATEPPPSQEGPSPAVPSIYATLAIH

Human ILT2-Fc = Human ILT2-Fc (human, UniProt Q8NHL6 24-461, limits assumed); assay: SPR (Biacore) competition: blocking of human ILT2-Fc binding to HLA-A, 25 C
Human ILT2-Fc, sequence (Q8NHL6 24-461 limits assumed): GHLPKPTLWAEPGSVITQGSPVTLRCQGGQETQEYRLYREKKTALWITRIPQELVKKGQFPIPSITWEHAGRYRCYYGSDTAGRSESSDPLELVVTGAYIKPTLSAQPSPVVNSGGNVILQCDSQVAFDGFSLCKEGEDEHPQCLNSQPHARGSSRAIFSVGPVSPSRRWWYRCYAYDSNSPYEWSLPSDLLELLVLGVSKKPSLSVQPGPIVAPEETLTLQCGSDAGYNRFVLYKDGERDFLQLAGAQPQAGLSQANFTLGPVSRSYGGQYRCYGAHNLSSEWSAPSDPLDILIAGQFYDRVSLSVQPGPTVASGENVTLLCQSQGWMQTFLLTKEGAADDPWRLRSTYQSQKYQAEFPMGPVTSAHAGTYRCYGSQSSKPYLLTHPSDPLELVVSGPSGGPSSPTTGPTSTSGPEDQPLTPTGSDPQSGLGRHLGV
Experimental: In addition to the reporter cell system, the inhibitory activity of anti-ILT2/ILT4 antibodies towards the interaction between ILT2 and MHC I molecules, and the interaction between ILT4 and MHC I molecules was evaluated using the Biacore system. Human ILT2-Fc and ILT4-Fc were used as target receptors and their interaction with an exemplary MHC-I molecule (HLA-A) was assayed in the presence or absence of an exemplary anti-ILT2/ILT4 antibody Hz73D1.v1 at 25° C. Anti-human ILT2 (clone 27F9) or ILT4 (clone 48A5) antibodies were used as tool reagents to dissect ILT2- and ILT4-specific blocking activities. Anti-IL2/ILT4 antibodies produced a dose-dependent reduction in the interaction between ILT2 and HLA-A, as well as between ILT4 and HLA-A. IC50s of the antibodies tested are shown in Table 16.

soluble human ILT2-ECD [3] = biological target: T1, soluble human ILT2-ECD; assay: SPR (Biacore), antibody captured on Protein A chip, soluble ILT-ECD injected (1.6-200 nM), 25 C
Experimental: as §1

human ILT4 on cells = biological target: T3, human ILT4 on cells (human, UniProt Q8N423 22-597); assay: flow cytometry, fluorescently labelled antibody on immune cell subsets of PBMC / red-cell-depleted whole blood
T3 construct: also called LILRB2; human ILT4 expressed on 293T cells
T3 sequence (Q8N423 other isoform, or with tags, fused parts or gaps): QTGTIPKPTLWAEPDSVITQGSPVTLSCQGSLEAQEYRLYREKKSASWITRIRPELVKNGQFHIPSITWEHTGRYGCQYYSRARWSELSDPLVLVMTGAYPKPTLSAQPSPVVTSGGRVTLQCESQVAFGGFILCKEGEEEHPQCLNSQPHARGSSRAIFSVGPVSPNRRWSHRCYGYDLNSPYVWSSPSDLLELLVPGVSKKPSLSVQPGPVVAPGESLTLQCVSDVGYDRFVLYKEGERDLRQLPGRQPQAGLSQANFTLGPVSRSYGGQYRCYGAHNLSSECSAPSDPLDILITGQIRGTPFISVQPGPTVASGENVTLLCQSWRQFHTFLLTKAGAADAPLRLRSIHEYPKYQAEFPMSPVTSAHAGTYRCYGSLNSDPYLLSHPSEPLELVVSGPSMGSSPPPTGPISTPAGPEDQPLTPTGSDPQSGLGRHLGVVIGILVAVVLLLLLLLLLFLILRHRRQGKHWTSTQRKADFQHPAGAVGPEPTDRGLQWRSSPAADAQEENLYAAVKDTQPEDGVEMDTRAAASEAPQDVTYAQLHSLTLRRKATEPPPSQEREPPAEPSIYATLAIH
Experimental: Flow cytometry analysis of blood immune cells was performed on human and cyno PBMC and whole blood. PBMC were prepared from a leukopak (Allcells Inc.) by centrifugation through ficoll, washing with PBS and freezing in cryopreservation buffer in liquid nitrogen until use. Whole blood (Allcells Inc.) was obtained fresh and red blood cells (RBC) depleted using ammonium chloride RBC lysing solution (Biolegend). PBMC or whole blood samples were stained with a fluorescently labeled antibody panel to distinguish various immune subsets (monocytes, B cells, NK cells, CD4+ and CD8+ T cells, neutrophils and eosinophils). Samples were further stained with fluorescently labeled isotype, 27F9 (ILT2 specific), 48A5 (ILT4 specific), 73D1, and Hz73D1.v1. The number of ILT2 and ILT4 molecules per cell of each immune subset was estimated by incubation with Quantum Simply Cellular microspheres followed by flow cytometry analysis.

[4] = biological target: T4, human ILT4 chimeric reporter receptor (ILT4 extracellular domain fused to PILRbeta … (human, UniProt Q8N423 22-460)); assay: reporter cell assay (not a direct binding assay): human ILT4 reporter cells co-cultured with Raji cells, %GFP+ by FACS
T4 construct: On the surface of NFAT-GFP reporter cells; associates with DAP12; also called ILT4 reporter cells; Human ILT4 reporter construct; not shown: The PILRbeta transmembrane/intracellular domain
Experimental: The ability of anti-ILT2/ILT4 antibodies to inhibit the interaction between ILT2 and/or ILT4 and MHC I molecules was evaluated using a reporter cell system. […] In this chimeric receptor system, the extracellular domain of the receptor of interest (e.g., ILT2 or ILT4) is fused with the transmembrane/intracellular domain of PILRβ that associates with the adaptor protein DAP12. When the chimeric receptor (e.g., ILT2 or ILT-4) is activated by binding to a ligand (e.g., MHC I molecule), DAP12 becomes phosphorylated and activates an NFAT-responsive promoter which drives GFP expression (see, e.g., Deng et al., 2014, Blood, 124:924-935).
Reporter cells were washed after staining and resuspended at 1×10⁶ cells/ml in X-VIVO™ 15 media (Lonza). […] For assays with Raji cells: anti-ILT2 antibody 27F9, anti-ILT4 antibody 48A5, anti-ILT2/ILT4 antibody 73D1 and Hz73D1.v1, and a control antibody were serially diluted and 50 μl was added to each well of a 96-well flat-bottom cell culture plate. […] The plates were incubated overnight at 37° C. The next day, reporter cells were assayed for GFP expression by FACS.

soluble human ILT4-ECD [5] = biological target: T2, soluble human ILT4-ECD; assay: Biacore competition: antibody titrated against 20 nM ILT4-ECD, mixture injected over biotinylated HLA-A*1101 on a NeutrAvidin chip
Experimental: (§2) As part of the characterization process, the ability of exemplary antibodies to inhibit or block the interaction of ILT2 or ILT4 with their natural ligands was evaluated in competition experiments using a Biacore system. As described herein, the natural ligands of ILT2 and ILT4 include, but are not limited to, HLA class I molecules, including HLA-A, HLA-B, HLA-C, HLA-E, and HLA-G. Biotinylated HLA-A*1101 was captured in high amounts on a NeutrAvidin chip surface. Antigen-antibody complexes were prepared with (i) ILT2-ECD and anti-ILT2 antibody 27F9, anti-ILT4 antibody 48A5, or anti-ILT2/ILT4 antibody Hz73D1.v1 and (ii) ILT4-ECD and anti-ILT2 antibody 27F9, anti-ILT4 antibody 48A5, or anti-ILT2/ILT4 antibody Hz73D1.v1. The antibody concentration of each antibody was titrated from 0.09-100 nM and the concentration of human ILT2-ECD or ILT4-ECD was kept constant at 20 nM. The complexes were mixed in a 96-well microplate and each was injected onto the HLA-A-coated chip surface. The measured signal (response unit, RU) was plotted against the antibody concentration.

soluble human ILT2-ECD [6] = biological target: T1, soluble human ILT2-ECD; assay: Biacore competition: antibody titrated against 20 nM ILT2-ECD, mixture injected over biotinylated HLA-A*1101 on a NeutrAvidin chip; blocked ligand HLA-A*1101
Experimental: as §2

T1 sequence (Q8NHL6 24-461): as the sequence (Q8NHL6 24-461 limits assumed) above

Row | Binder | binding result (soluble human ILT2-ECD [1]) | Kd (soluble human ILT4-ECD [2]) [nM] | koff (soluble human ILT4-ECD [2]) [s⁻¹] | kon (soluble human ILT4-ECD [2]) [M⁻¹ s⁻¹] | EC50, NKL cytolytic activity against 721.221-HLA-G target cells (human ILT2 on cells) [nM] | IC50 (Human ILT2-Fc) [nM] | Kd (soluble human ILT2-ECD [3]) [nM] | koff (soluble human ILT2-ECD [3]) [s⁻¹] | kon (soluble human ILT2-ECD [3]) [M⁻¹ s⁻¹] | binding result (human ILT4 on cells) | binding result [4] | binding result (soluble human ILT4-ECD [5]) | IC50 (read off the curve) (soluble human ILT2-ECD [6]) [nM]
1 | anti-ILT4 antibody 47C8 (antibody, V domains shown, Mouse hybridoma antibody) VH: EVQLQQSGPDLVKPGASVKISCKASGYSFTGYYMHWVKQSHGKSLEWIGRVYPNNGDTSYNQKFKVKAILTVDKSSSTAYMELRSLTSEDSAVYYCARGATVVESLFAYWGQGTLVTVSA VL: DIVLTQSPASLAVSLGQRATISCRASESVDNYGNNFLHWYQQKPGQPPKLLIYRTSNLESGIPARFSGSGSRTDFTLTINPVEADDVATYYCQQSNEDPYTFGGGTKLEIK | no binding (tested: 1.6-200 nM) | 0.074 | 2.5e-05 | 340000 |  |  |  |  |  |  |  |  | 
2 | anti-ILT2 antibody 27F9 (antibody, V domains shown, Mouse hybridoma antibody; also called clone 27F9; anti-ILT2 (27F9)) VH: QVQLKESGPGLVAPSQSLSITCTVSGFSLTNYGVSWVRQPPGKGLEWLGIIWGDGSTNYHSALISRLSISKDNSKSQVFLKLNSLQADDTATYYCAKPNWDTYAMDFWGQGTSVTVSS VL: DIQMTQTTSSLSASLGDRVTISCRASQDISNFLNWYQQKPDGTVKLLIYCTSKLHSGVPSRFSGSGSETDYSLTISNLEQEDIATYFCQQGNTLPPTFGGGTKLEII |  |  |  |  | 0.064 | 8.9 | 0.26 | 5.4e-05 | 210000 | no binding (tested: not given) | no binding (tested: Log nM about 1.5 (about 30 nM)) | no binding (tested: about 200 nM) | ~9
